Experimental data reported in patent US20140087995A1 (published 2014).
Numbered stars: 1 amine (or outer) side, 2 acyl side, 3 side chain; on linkers, the order of the positions; unused ones are H or OH. Bridge positions count the residues as written; N and C are the ends. Side chains are listed from the residue outwards. Ends that are not written are not given here. * marks the point of attachment. C20 diacid = O=C(O)CCCCCCCCCCCCCCCCCCC(=O)*; γGlu = O=C(O)[C@H](CCC(=O)[*:2])N[*:1]; AEEA = NCCOCCOCC(=O)O

T1: rat amylin receptor (rat calcitonin receptor + rat RAMP 3) (rat, UniProt P32214 25-516; Q9JJ73 23-147)
T1 construct: whole, on cells; Receptor complex in cell membranes prepared from transiently transfected BHK tk'ts 13 cells (Assay VI); also called rAmylin-R; rat amylin 3(a) receptor
T1 sequence (looked up) 1: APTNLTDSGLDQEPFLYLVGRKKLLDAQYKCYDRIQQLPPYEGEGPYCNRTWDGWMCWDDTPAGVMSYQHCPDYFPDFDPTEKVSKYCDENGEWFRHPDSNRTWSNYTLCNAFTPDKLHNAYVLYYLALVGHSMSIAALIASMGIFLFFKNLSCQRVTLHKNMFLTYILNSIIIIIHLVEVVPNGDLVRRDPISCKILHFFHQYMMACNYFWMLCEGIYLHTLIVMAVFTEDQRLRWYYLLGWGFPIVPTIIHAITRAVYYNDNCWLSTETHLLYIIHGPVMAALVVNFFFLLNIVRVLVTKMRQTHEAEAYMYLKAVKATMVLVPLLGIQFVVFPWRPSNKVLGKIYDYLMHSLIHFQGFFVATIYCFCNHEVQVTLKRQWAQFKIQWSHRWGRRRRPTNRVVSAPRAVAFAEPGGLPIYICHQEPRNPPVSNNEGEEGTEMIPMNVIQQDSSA
T1 sequence (looked up) 2: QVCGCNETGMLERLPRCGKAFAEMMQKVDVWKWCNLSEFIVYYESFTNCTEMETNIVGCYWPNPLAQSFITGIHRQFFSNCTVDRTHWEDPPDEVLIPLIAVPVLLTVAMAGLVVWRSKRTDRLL

T2: human calcitonin receptor (human, UniProt P30988 25-474)
T2 construct: whole, on cells; Cell membranes from the stably transfected cell line (Assay VII); also called hCTR; hCT
T2 sequence (looked up): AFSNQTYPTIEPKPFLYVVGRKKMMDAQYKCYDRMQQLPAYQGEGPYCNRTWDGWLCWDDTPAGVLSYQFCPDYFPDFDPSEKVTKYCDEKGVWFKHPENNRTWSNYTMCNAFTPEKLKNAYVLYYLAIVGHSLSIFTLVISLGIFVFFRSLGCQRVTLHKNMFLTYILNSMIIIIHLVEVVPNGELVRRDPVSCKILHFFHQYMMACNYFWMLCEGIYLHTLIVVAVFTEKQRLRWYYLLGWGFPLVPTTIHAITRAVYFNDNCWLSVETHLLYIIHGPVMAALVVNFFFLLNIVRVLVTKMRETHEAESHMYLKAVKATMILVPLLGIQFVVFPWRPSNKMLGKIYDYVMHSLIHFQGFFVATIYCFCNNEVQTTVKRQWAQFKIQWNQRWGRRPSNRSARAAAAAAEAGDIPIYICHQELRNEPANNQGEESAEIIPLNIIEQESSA

T3: rat calcitonin receptor (rat, UniProt P32214 25-516)
T3 construct: whole, on cells; In cell membranes prepared from transiently transfected BHK tk'ts 13 cells (Assay VIII); also called rCTR; rat calcitonin (a) receptor
T3 sequence (looked up): T1 sequence (looked up) 1

T4: human calcitonin receptor (human, UniProt P30988 25-474)
T4 construct: whole, on cells; Used as membranes prepared from the transfected cells; also called hCTR; hCT
T4 sequence (looked up): T2 sequence (looked up)

T5: rat calcitonin receptor (rat, UniProt P32214 25-516)
T5 construct: whole, on cells; Used as membranes prepared from the transfected cells; also called rCTR; rCT
T5 sequence (looked up): T1 sequence (looked up) 1

T6: rat amylin receptor (rat calcitonin receptor with rat RAMP 3) (rat, UniProt P32214 25-516; Q9JJ73 23-147)
T6 construct: whole, on cells; Used as membranes prepared from the transfected cells; also called rAmylin-R; rAmylin
T6 sequence (looked up) 1: T1 sequence (looked up) 1
T6 sequence (looked up) 2: T1 sequence (looked up) 2

B1: N^ε1-[(4S)-4-carboxy-4-[[(4S)-4-carboxy-4-(19-carboxynonadecanoylamino)butanoyl]amino]butanoyl]-[Glu14,Arg17,Pro21,Pro27,Pro34,Phe37]-h-amylin (peptide)
peptide: K([γGlu-γGlu-C20 diacid])CNTATCATQRLAEFLRHSSPNFGAIPSSTNVGPNTF-NH2
modifications: disulfide 2-7; N-terminus assumed
SMILES: CC[C@H](C)[C@H](NC(=O)[C@H](C)NC(=O)CNC(=O)[C@H](Cc1ccccc1)NC(=O)[C@H](CC(N)=O)NC(=O)[C@@H]1CCCN1C(=O)[C@H](CO)NC(=O)[C@H](CO)NC(=O)[C@H](Cc1c[nH]cn1)NC(=O)[C@H](CCCNC(=N)N)NC(=O)[C@H](CC(C)C)NC(=O)[C@H](Cc1ccccc1)NC(=O)[C@H](CCC(=O)O)NC(=O)[C@H](C)NC(=O)[C@H](CC(C)C)NC(=O)[C@H](CCCNC(=N)N)NC(=O)[C@H](CCC(N)=O)NC(=O)[C@@H](NC(=O)[C@H](C)NC(=O)[C@@H]1CSSC[C@H](NC(=O)[C@@H](N)CCCCNC(=O)CC[C@H](NC(=O)CC[C@H](NC(=O)CCCCCCCCCCCCCCCCCCC(=O)O)C(=O)O)C(=O)O)C(=O)N[C@@H](CC(N)=O)C(=O)N[C@@H]([C@@H](C)O)C(=O)N[C@@H](C)C(=O)N[C@@H]([C@@H](C)O)C(=O)N1)[C@@H](C)O)C(=O)N1CCC[C@H]1C(=O)N[C@@H](CO)C(=O)N[C@@H](CO)C(=O)N[C@H](C(=O)N[C@@H](CC(N)=O)C(=O)N[C@H](C(=O)NCC(=O)N1CCC[C@H]1C(=O)N[C@@H](CC(N)=O)C(=O)N[C@H](C(=O)N[C@@H](Cc1ccccc1)C(N)=O)[C@@H](C)O)C(C)C)[C@@H](C)O
B2: N^ε1-[2-[2-[2-[[2-[2-[2-[[(4S)-4-carboxy-4-(19-carboxynonadecanoylamino)butanoyl]amino]ethoxy]ethoxy]acetyl]amino]ethoxy]ethoxy]acetyl]-[Arg17,Pro21,Pro27,Arg34 … (peptide)
peptide: K([AEEA-AEEA-γGlu-C20 diacid])CNTATCATQRLANFLRHSSPNFGAIPSSTNVGRNTY-NH2
modifications: disulfide 2-7; N-terminus assumed
SMILES: CC[C@H](C)[C@H](NC(=O)[C@H](C)NC(=O)CNC(=O)[C@H](Cc1ccccc1)NC(=O)[C@H](CC(N)=O)NC(=O)[C@@H]1CCCN1C(=O)[C@H](CO)NC(=O)[C@H](CO)NC(=O)[C@H](Cc1c[nH]cn1)NC(=O)[C@H](CCCNC(=N)N)NC(=O)[C@H](CC(C)C)NC(=O)[C@H](Cc1ccccc1)NC(=O)[C@H](CC(N)=O)NC(=O)[C@H](C)NC(=O)[C@H](CC(C)C)NC(=O)[C@H](CCCNC(=N)N)NC(=O)[C@H](CCC(N)=O)NC(=O)[C@@H](NC(=O)[C@H](C)NC(=O)[C@@H]1CSSC[C@H](NC(=O)[C@@H](N)CCCCNC(=O)COCCOCCNC(=O)COCCOCCNC(=O)CC[C@H](NC(=O)CCCCCCCCCCCCCCCCCCC(=O)O)C(=O)O)C(=O)N[C@@H](CC(N)=O)C(=O)N[C@@H]([C@@H](C)O)C(=O)N[C@@H](C)C(=O)N[C@@H]([C@@H](C)O)C(=O)N1)[C@@H](C)O)C(=O)N1CCC[C@H]1C(=O)N[C@@H](CO)C(=O)N[C@@H](CO)C(=O)N[C@H](C(=O)N[C@@H](CC(N)=O)C(=O)N[C@H](C(=O)NCC(=O)N[C@@H](CCCNC(=N)N)C(=O)N[C@@H](CC(N)=O)C(=O)N[C@H](C(=O)N[C@@H](Cc1ccc(O)cc1)C(N)=O)[C@@H](C)O)C(C)C)[C@@H](C)O
notes: Analogue of human amylin; disulfide and C-terminal amide as told for h-amylin; also called compound 95
B3: N^ε1-[2-[2-[2-[[2-[2-[2-[[(4S)-4-carboxy-4-(19-carboxynonadecanoylamino)butanoyl]amino]ethoxy]ethoxy]acetyl]amino]ethoxy]ethoxy]acetyl]-[Arg17,Pro21,Pro27,His34 … (peptide)
peptide: K([AEEA-AEEA-γGlu-C20 diacid])CNTATCATQRLANFLRHSSPNFGAIPSSTNVGHNTY-NH2
modifications: disulfide 2-7; N-terminus assumed
SMILES: CC[C@H](C)[C@H](NC(=O)[C@H](C)NC(=O)CNC(=O)[C@H](Cc1ccccc1)NC(=O)[C@H](CC(N)=O)NC(=O)[C@@H]1CCCN1C(=O)[C@H](CO)NC(=O)[C@H](CO)NC(=O)[C@H](Cc1c[nH]cn1)NC(=O)[C@H](CCCNC(=N)N)NC(=O)[C@H](CC(C)C)NC(=O)[C@H](Cc1ccccc1)NC(=O)[C@H](CC(N)=O)NC(=O)[C@H](C)NC(=O)[C@H](CC(C)C)NC(=O)[C@H](CCCNC(=N)N)NC(=O)[C@H](CCC(N)=O)NC(=O)[C@@H](NC(=O)[C@H](C)NC(=O)[C@@H]1CSSC[C@H](NC(=O)[C@@H](N)CCCCNC(=O)COCCOCCNC(=O)COCCOCCNC(=O)CC[C@H](NC(=O)CCCCCCCCCCCCCCCCCCC(=O)O)C(=O)O)C(=O)N[C@@H](CC(N)=O)C(=O)N[C@@H]([C@@H](C)O)C(=O)N[C@@H](C)C(=O)N[C@@H]([C@@H](C)O)C(=O)N1)[C@@H](C)O)C(=O)N1CCC[C@H]1C(=O)N[C@@H](CO)C(=O)N[C@@H](CO)C(=O)N[C@H](C(=O)N[C@@H](CC(N)=O)C(=O)N[C@H](C(=O)NCC(=O)N[C@@H](Cc1c[nH]cn1)C(=O)N[C@@H](CC(N)=O)C(=O)N[C@H](C(=O)N[C@@H](Cc1ccc(O)cc1)C(N)=O)[C@@H](C)O)C(C)C)[C@@H](C)O
notes: Analogue of human amylin; disulfide and C-terminal amide as told for h-amylin; also called compound 97
B4: N^ε1-[(4S)-4-carboxy-4-[[(4S)-4-carboxy-4-(19-carboxynonadecanoylamino)butanoyl]amino]butanoyl]-[Glu14,Arg17,Pro23,Pro34,Glu35]-h-amylin (peptide)
peptide: K([γGlu-γGlu-C20 diacid])CNTATCATQRLAEFLRHSSNNPGAILSSTNVGPETY-NH2
modifications: disulfide 2-7

How the values were obtained:
[1] = molecular target: T1, rat amylin receptor (rat calcitonin …); assay: SPA competition binding, displacement of 125I-rat amylin from membranes of BHK tk'ts 13 cells with rat calcitonin receptor + rat RAMP 3 (Assay VI)
[2] = molecular target: T2, human calcitonin receptor; assay: ratio of binding IC50s: human calcitonin receptor (Assay VII) over human amylin receptor (Assay V)
Experimental: The resulting pellet was resuspended, homogenized and centrifuged (20.000 rpm, 15 min) in a buffer containing 20 mM Na-HEPES and 0.1 mM EDTA (pH 7.4, buffer 2). The resulting pellet was resuspended in buffer 2 and protein concentration was measured (BCA protein Assay, Pierce). The homogenate was kept cold during the whole procedure. The membranes were kept at −80° C. until use. The assay was performed in a 384 well Optiplate (PerkinElmer) in a total volume of 40 ul. Membranes were mixed with SPA beads. Final concentration of membranes 35 ng/μL final and SPA beads was 0.05 mg/well. Test-compounds were dissolved in DMSO and further diluted in assay buffer (50 mM Hepes, pH 7.4, 1 mM CaCl2, 5 mM MgCl₂, 0.1% OA and 0.02% Tween20). […] The final mixture was incubated with shaking at 400 rpm for 120 min at 25° C. prior to centrifugation (1500 rpm, 10 min). Samples were analyzed on TopCounter™ (Packard). The IC₅₀ was calculated using (one site binding competition analysis) GraphPad Prism5 as a measure of receptor affinity.
Membranes were prepared in the following way; the cells were rinsed with PBS and incubated with Versene for approximately 5 min before harvesting. The cells were flushed with PBS and the cell-suspension was centrifuged for 5 min at 1000 rpm. Cells were homogenized (Ultrathurrax) in a buffer containing 20 mM Na-HEPES and 10 mM EDTA (pH 7.4) and centrifuged at 20.000 rpm for 15 min. The resulting pellet was resuspended, homogenized and centrifuged (20.000 rpm, 15 min) in a buffer containing 20 mM Na-HEPES and 0.1 mM EDTA (pH 7.4, buffer 2). The resulting pellet was resuspended in buffer 2 and protein concentration was measured (BCA protein Assay, Pierce). The homogenate was kept cold during the whole procedure. The membranes were kept at −80° C. until use. Assay was performed in a 384 well Optiplate (PerkinElmer) in a total volume of 40 ul. Membranes were mixed with SPA beads.

rat calcitonin receptor [3] = molecular target: T3, rat calcitonin receptor; assay: ratio of binding IC50s: rat calcitonin receptor (Assay VIII) over rat amylin receptor (Assay VI)
rat calcitonin receptor [4] = molecular target: T3, rat calcitonin receptor; assay: SPA competition binding, displacement of 125I-Calcitonin from membranes of BHK tk'ts 13 cells with rat calcitonin receptor (Assay VIII)
[5] = molecular target: T4, human calcitonin receptor; assay: ratio of binding IC50 at human calcitonin receptor to IC50 at human amylin receptor (reference)
Outline: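 IC₅₀ values were derived by one-site competition analysis of SPA counts. Cell membranes (35 ng/μL) with SPA beads were incubated with test compounds for 120 min at 25° C in Hepes buffer, pH 7.4, containing CaCl2, MgCl₂, OA and Tween20.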

rat calcitonin receptor [6] = molecular target: T5, rat calcitonin receptor; assay: SPA competition with 125I-calcitonin, membranes with rat calcitonin receptor (Assay VIII)
[7] = molecular target: T6, rat amylin receptor (rat calcitonin …); assay: SPA competition with 125I-rat amylin, membranes with rat calcitonin receptor + rat RAMP3 (Assay VI)
rat calcitonin receptor [8] = molecular target: T5, rat calcitonin receptor; assay: ratio of binding IC50 at rat calcitonin receptor to IC50 at rat amylin receptor (reference)

Binder | IC50 [1] | Ratio hCT/hAmylin binding [2] | Ratio rCT/rAmylin binding (rat calcitonin receptor [3]) | IC50 (rat calcitonin receptor [4]) | Ratio hCT/hAmylin binding [5] | IC50 (rat calcitonin receptor [6]) | IC50 [7] | Ratio rCT/rAmylin binding (rat calcitonin receptor [8])
B1 | 0.205 nM | 18 | 114 | 23.4 nM | – | – | – | –
B2 | – | – | – | – | 63.4 | 388 nM | 5.45 nM | 71.3
B3 | – | – | – | – | 104 | 159 nM | 2.24 nM | 71.1
B4 | 0.659 nM | 7.8 | 132 | 86.8 nM | – | – | – | –
